In paper PMC11098746 (2024):

Legend:
Assay in all cases: AVEXIS screen signal:noise (double-corrected)
[1] = target: ADP123
[2] = target: T1, ADP269
T1 chain: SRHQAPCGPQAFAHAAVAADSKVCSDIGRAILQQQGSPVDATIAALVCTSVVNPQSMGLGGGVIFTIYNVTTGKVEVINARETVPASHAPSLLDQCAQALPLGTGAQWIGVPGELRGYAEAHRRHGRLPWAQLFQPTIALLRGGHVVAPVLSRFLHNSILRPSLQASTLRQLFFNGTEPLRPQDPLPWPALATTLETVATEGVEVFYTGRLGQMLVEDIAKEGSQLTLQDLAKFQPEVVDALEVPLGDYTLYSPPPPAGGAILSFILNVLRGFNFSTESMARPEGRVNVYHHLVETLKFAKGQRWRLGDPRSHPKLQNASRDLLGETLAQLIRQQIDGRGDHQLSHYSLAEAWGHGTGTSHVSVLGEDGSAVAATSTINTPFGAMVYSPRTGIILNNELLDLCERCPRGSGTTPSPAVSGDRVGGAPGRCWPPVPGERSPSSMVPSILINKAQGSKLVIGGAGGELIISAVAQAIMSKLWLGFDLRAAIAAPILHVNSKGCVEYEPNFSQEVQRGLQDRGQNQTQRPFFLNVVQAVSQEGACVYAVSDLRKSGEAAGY

[3] = target: T2, ADP106
T2 chain: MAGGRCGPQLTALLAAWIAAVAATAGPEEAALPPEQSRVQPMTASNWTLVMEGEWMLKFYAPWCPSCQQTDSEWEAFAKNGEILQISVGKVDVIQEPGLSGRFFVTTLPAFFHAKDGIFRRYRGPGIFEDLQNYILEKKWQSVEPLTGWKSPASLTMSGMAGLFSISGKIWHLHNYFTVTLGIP

[4] = target: T3, ADP379
T3 chain: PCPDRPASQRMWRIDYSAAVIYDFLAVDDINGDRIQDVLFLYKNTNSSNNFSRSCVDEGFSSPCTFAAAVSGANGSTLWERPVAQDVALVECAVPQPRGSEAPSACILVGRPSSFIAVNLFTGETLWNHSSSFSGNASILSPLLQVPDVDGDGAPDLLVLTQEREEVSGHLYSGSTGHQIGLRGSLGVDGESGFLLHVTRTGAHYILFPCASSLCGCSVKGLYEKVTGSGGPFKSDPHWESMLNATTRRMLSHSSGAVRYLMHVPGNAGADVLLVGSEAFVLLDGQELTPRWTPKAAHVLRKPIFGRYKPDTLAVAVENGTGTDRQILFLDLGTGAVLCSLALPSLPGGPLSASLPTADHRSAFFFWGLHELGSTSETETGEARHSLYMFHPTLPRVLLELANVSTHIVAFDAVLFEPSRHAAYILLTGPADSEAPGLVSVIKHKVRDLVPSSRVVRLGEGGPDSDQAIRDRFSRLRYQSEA

[5] = target: T4, ADP096
T4 chain: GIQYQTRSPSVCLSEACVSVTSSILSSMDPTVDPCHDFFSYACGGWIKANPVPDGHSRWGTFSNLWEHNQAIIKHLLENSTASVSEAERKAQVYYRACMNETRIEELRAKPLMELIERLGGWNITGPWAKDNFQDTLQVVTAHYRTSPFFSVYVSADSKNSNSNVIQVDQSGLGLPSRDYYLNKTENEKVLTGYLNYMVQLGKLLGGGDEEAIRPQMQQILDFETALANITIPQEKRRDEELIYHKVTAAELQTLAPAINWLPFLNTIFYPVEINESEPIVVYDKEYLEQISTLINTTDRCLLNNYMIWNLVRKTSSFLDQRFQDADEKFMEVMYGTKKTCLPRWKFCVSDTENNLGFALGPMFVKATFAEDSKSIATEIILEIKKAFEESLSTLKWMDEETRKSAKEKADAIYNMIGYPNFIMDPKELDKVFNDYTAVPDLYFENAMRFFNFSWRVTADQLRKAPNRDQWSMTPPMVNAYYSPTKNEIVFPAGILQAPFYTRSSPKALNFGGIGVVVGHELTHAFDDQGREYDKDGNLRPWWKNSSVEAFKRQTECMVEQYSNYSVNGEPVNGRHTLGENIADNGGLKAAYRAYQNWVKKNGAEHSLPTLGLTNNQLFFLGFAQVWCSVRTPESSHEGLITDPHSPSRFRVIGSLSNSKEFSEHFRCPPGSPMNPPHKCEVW

[6] = target: ADP099
Sequence of ADP099 (P02786 89-760): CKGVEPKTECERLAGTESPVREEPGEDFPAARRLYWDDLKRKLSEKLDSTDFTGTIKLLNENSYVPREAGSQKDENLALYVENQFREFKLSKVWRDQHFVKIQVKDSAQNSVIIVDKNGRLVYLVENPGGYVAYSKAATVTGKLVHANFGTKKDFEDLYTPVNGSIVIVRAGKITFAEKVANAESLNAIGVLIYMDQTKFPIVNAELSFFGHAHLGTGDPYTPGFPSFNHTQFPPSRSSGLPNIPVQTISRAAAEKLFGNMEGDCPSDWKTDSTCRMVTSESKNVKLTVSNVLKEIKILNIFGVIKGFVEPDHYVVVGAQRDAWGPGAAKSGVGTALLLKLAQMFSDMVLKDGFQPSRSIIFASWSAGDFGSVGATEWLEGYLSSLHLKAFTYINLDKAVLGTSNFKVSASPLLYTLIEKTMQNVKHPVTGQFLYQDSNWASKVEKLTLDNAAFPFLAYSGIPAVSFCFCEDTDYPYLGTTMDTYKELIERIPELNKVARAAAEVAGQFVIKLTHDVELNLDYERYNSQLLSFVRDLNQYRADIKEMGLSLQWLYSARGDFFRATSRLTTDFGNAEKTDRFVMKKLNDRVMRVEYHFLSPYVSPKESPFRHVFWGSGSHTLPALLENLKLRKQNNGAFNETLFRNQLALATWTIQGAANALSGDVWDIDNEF

[7] = target: T5, ADP385
T5 chain: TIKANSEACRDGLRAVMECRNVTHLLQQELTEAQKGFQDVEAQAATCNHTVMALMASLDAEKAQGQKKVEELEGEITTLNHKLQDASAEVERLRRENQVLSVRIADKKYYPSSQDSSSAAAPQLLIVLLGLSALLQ

B1: ADP237 (protein)
chain: TKKKVSVSEINFDSAVDDVQWCGNNHMTVLVKTVKGRLYRSSDGGKIWTNIAGNLADKENNKADPSSNHMNEMTTVDLIMVNSVNKNIVLIIGNQKNHYISEDSGETFRLLNYQNKINFWQFHSTKTHWALVSSWTEACYSNDDNSGECMQTLSLTKDLGRTFQLIDIYVVQFNWGDKESHLEDTIYYTRHKNRNGHQQRFSGWSKDVDFVATHNFGKSVDVLVKQGNKFLISNGYIFVAKLNDVIKQTVNMMVSTDGGKTFNKANLPENIHEKSYTVLDTSEGSIMLHVNHGTSSEKINTGNVYISDASGLNYALSLPNNIRTSSGECEFDRVLSLDGVYIANFLDVNNEIKDEDLRFQNFKSAIEEDIAPFETNTEKRKKQYNKGKNEDAVRTVISFNKGGEWSYLKAPKVDSRGNKYECGDNCYLHLHGITNYHQYAPFYSIENAVGIIMGTGNVGSHLRYESDEVNTFLSRDGGVTWIEAHKGPYIYEYGDYGGLIVMADDLRKTNQIVFSWNEGQSWFDFELGQFSIDVDNIVAEPNSASVEFLVYGTRNDVGVLYHLDFNALGQPLCKGLWAADSVSSDYETWSPTSGNFNDKCILGRKITYTRRKQTSECFNGKDLKRTVDKKPCECTPEDYECETGFTRKIGSYECKPNDPTLTIEGCTSSSYFYANAYRKVPGDICVNGWVPEKVPVPCPSYAPFNKAAK
modifications: bait human Fc-tagged dimer; N-glycosylation sequons mutated in Plasmodium baits
- binding score [1]: 5.84
- binding score [2]: 10.4
- binding score [3]: 10.3
- binding score [4]: 16.2
- binding score [5]: 16.2
- binding score [6]: 5.11
- binding score [7]: 5.45
